1 molecule from patent publication US20250388893A1 (HUAZHONG AGRICULTURAL UNIVERSITY, published 2025) can be followed below.

This assay addresses T1, GAL4 DNA binding domain (UniProt P04386 1-147).
T1 construct: Residues read through from the cloning site are not described; also called BD
Nature of the assay: yeast two-hybrid, growth on SD/-Trp/-Leu/-Ade/-His; empty vector.

T1 sequence (P04386 1-147 limits assumed): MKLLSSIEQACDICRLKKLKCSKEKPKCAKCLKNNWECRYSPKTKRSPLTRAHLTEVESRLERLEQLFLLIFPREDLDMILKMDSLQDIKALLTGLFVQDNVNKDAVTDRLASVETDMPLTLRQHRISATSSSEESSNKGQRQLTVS

B1: GAL4 activation domain (other, UniProt P04386 768-881, looked up)
chain: ANFNQSGNIADSSLSFTFTNSSNGPNLITTQTNSQALSQPIASSNVHDNFMNNEITASKIDDGNNSKPLSPGWTDQTAYNAFGITTGMFNTTTMDDVYNYLFDDEDTPPNPKKE
notes: Residues read through from the cloning site are not described; also called AD
In the case of B1, the binding result is on record as “no binding”.
